Test results as given in doi:10.1101/2022.10.04.510915.

Legend:
[1] = target: JetB (E. coli GF4-3), as subunit of the JetABC complex (E. coli strain GF4-3); assay: cryo-EM structure
[2] = target: JetC (E. coli GF4-3), as subunit of the JetABC complex (E. coli strain GF4-3); assay: cryo-EM structure

| Substance | stoichiometry N [1] | stoichiometry N [2] |
| --- | --- | --- |
| JetB (E. coli GF4-3), as subunit of the JetABC complex (natural protein) | 2 |  |
| JetC (E. coli GF4-3), as subunit of the JetABC complex (natural protein) |  | 2 |
